According to patent US20070092518A1 (published 2007):
Residue numbers refer to the chain shown, from its start.

B1: SEQ ID NO 92 (Fab, V domains shown)
VH: EVQLVESGGGLVQPGGSLRLSCAASGSIFSNHWMNWVRQAPGKGLEWIGEIRSKSSNSATHYAESVKGRFIISRDGNKNDLTLEMNSLKTEDTAEYYCARNYYGSTYDYWGQGTLVTVS
VL: EIVLTQSPDFQSVTPKEKVTITCRASQFVGSSIHWYQQKPDQSPKLLIKYASESMSGVPSRFSGSGSGTDFTFTISSLEAEDAATYYCQQSHSWPFTFGPGTKVDIK
notes: Fab, E. coli lysate
B2: SEQ ID NO 111 (Fab, V domains shown)
VH: B1 VH with V5T, A23R, S27F, W33Y, S56I, G76D, K78G, D80S, T82Y, Y107P
VL: B1 VL
notes: Fab, E. coli lysate
B3: SEQ ID NO 110 (Fab, V domains shown)
VH: B1 VH with S56I, H61S, G76D, N79T, T82Y, R100Q, Y107P
VL: B1 VL
notes: Fab, E. coli lysate
B4: SEQ ID NO 117 (Fab, V domains shown)
VH: B1 VH with V5T, G26Q, S27F, I28T, N79T, D80S, Y107P
VL: B1 VL
notes: Fab, E. coli lysate
B5: SEQ ID NO 94 (Fab, V domains shown)
VH: B1 VH with A23R, S56I, S58G, G76D, K78G, N79T, D80S, T82Y
VL: B1 VL
notes: Fab, E. coli lysate
B6: SEQ ID NO 105 (Fab, V domains shown)
VH: B1 VH with V5T, S27F, W33Y, S58G, H61S, G76D, K78G, D80S, R100Q, Y107P
VL: B1 VL
notes: Fab, E. coli lysate
B7: SEQ ID NO 118 (Fab, V domains shown)
VH: B1 VH with G26Q, S27F, I28T, S56I, H61S, G76D, D80S, T82Y, Y107P
VL: B1 VL
notes: Fab, E. coli lysate
B8: SEQ ID NO 97 (Fab, V domains shown)
VH: B1 VH with V5T, A23R, I28T, S58G, H61S, G76D, K78G, N79T, T82Y, R100Q
VL: B1 VL
notes: Fab, E. coli lysate
B9: SEQ ID NO 132 (Fab, V domains shown)
VH: B1 VH with G26Q, W33Y, S56I, N57Y, S58G, H61S, G76D, D80S, Y107P
VL: B1 VL
notes: Fab, E. coli lysate
B10: SEQ ID NO 101 (Fab, V domains shown)
VH: EVQLVESGGGLVQPGGSLRLSCRASGFTFSNHYMNWVRQAPGKGLEWIGEIRSKSSNSATSYAESVKGRFIISRDDNGNSLYLEMNSLKTEDTAEYYCAQNYYGSTPDYWGQGTLVTVS
VL: B1 VL
notes: Fab, E. coli lysate
B11: SEQ ID NO 95 (Fab, V domains shown)
VH: B10 VH with V5T, F27S, G78K, N79T, Q100R, P107Y
VL: B1 VL
notes: Fab, E. coli lysate
B12: SEQ ID NO 108 (Fab, V domains shown)
VH: B10 VH with V5T, R23A, G26Q, S56I, N57Y, D76G, G78K, Y82T, P107Y
VL: B1 VL
notes: Fab, E. coli lysate
B13: SEQ ID NO 115 (Fab, V domains shown)
VH: B10 VH with F27S, T28I, S56I, S61H, D76G, N79T, P107Y
VL: B1 VL
notes: Fab, E. coli lysate
B14: SEQ ID NO 106 (Fab, V domains shown)
VH: B1 VH with G26Q, S27F, S58G, H61S, N79T, R100Q
VL: B1 VL
notes: Fab, E. coli lysate
B15: SEQ ID NO 99 (Fab, V domains shown)
VH: B1 VH with W33Y, S58G, G76D, D80S, T82Y, R100Q
VL: B1 VL
notes: Fab, E. coli lysate
B16: SEQ ID NO 131 (Fab, V domains shown)
VH: B10 VH with V5T, R23A, G26Q, D76G, N79T, Y82T, P107Y
VL: B1 VL
notes: Fab, E. coli lysate
B17: SEQ ID NO 109 (Fab, V domains shown)
VH: B1 VH with A23R, G76D
VL: B1 VL
notes: Fab, E. coli lysate
B18: SEQ ID NO 93 (Fab, V domains shown)
VH: B10 VH with V5T, N57Y, S58G, S61H, N79T, S80D
VL: B1 VL
notes: Fab, E. coli lysate
B19: SEQ ID NO 126 (Fab, V domains shown)
VH: B10 VH with F27S, S56I, N57Y, S61H, D76G, G78K, P107Y
VL: B1 VL
notes: Fab, E. coli lysate
B20: SEQ ID NO 104 (Fab, V domains shown)
VH: B10 VH with V5T, G26Q, T28I, S56I, S61H, G78K, S80D
VL: B1 VL
notes: Fab, E. coli lysate
B21: SEQ ID NO 124 (Fab, V domains shown)
VH: B1 VH with G26Q, I28T, W33Y, T82Y, Y107P
VL: B1 VL
notes: Fab, E. coli lysate
B22: SEQ ID NO 100 (Fab, V domains shown)
VH: B1 VH with V5T, A23R, G26Q, S27F, W33Y, S56I, S58G, G76D, N79T, T82Y
VL: B1 VL
notes: Fab, E. coli lysate
B23: SEQ ID NO 130 (Fab, V domains shown)
VH: B10 VH with T28I, S56I, N57Y, S61H, P107Y
VL: B1 VL
notes: Fab, E. coli lysate
B24: SEQ ID NO 134 (Fab, V domains shown)
VH: B1 VH with V5T, S56I, S58G, K78G, N79T, D80S, T82Y, Y107P
VL: B1 VL
notes: Fab, E. coli lysate
B25: SEQ ID NO 127 (Fab, V domains shown)
VH: B10 VH with V5T, R23A, G26Q, T28I, Y33W, N57Y, S58G, Y82T, Q100R
VL: B1 VL
notes: Fab, E. coli lysate
B26: SEQ ID NO 112 (Fab, V domains shown)
VH: B10 VH with Y33W, S56I, N57Y, S61H, G78K, N79T, S80D, Q100R
VL: B1 VL
notes: Fab, E. coli lysate
B27: SEQ ID NO 102 (Fab, V domains shown)
VH: B1 VH with A23R, S27F, S56I, S58G, G76D, N79T, D80S, T82Y
VL: B1 VL
notes: Fab, E. coli lysate
B28: SEQ ID NO 98 (Fab, V domains shown)
VH: B1 VH with V5T, A23R, S27F, I28T, S58G, N79T, T82Y, Y107P
VL: B1 VL
notes: Fab, E. coli lysate
B29: SEQ ID NO 123 (Fab, V domains shown)
VH: B10 VH with V5T, G26Q, N57Y, S58G, S80D, Q100R, P107Y
VL: B1 VL
notes: Fab, E. coli lysate

Target: T1, human tumor necrosis factor-α (rHuTNF-alpha, Biosource) (human, UniProt P01375 77-233)
T1 construct: Bought recombinant protein coated on ELISA plates; The TNFα of the Biacore assay is not described further; also called TNFα; human TNFα
T1 sequence (P01375 77-233 limits assumed): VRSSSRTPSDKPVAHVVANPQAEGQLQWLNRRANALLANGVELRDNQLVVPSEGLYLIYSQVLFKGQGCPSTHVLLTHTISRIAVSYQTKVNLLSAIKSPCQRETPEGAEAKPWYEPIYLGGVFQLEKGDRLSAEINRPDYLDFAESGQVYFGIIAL
Test: solid-phase ELISA, Fab lysate on coated rHuTNF-alpha
Experimental: The Fab libraries were cloned into pTrcHis2A (Cat. No. V365-20, Invitrogen, Carlsbad, Calif.). Proteins were expressed in E. coli and solid-phase ELISA was used to assess Fab binding to human TNFα. Briefly, 96-well plates were coated overnight at 4° C. with 1 μg/ml of rHuTNF-alpha (Biosource, Camarillo, Calif.) in Carbonate-bicarbonate buffer, pH9.4. After washing in PBS with 0.05% (w/v) Tween-20, the wells were blocked with 1% (w/v) BSA in PBS for 1 hour at room temperature. After washing, plates were incubated with transformed E. coli cell lysate diluted in the assay buffer (1% BSA and 0.05% Tween-20 in 10 mM PBS) for 2 hours at room temperature. Various concentrations of infliximab (0.5, 1 and 2 ng/ml) were used as positive anti-Human Kappa Light Chain Biotin/anti-penta-His Biotin control. Plates were washed and incubated with ImmunoPure Goat Anti-Human Kappa Chain, Biotin Conjugated (Cat. No. 31780, Pierce Biotechnology, Rockford, Ill.) and Penta-His Biotin Conjugate (Cat. No. 34440, QIAGEN, Valencia, Calif.) diluted 1:2000 in the assay buffer for 1 hour at room temperature. Following another washing step, plates were probed for 1 hour at room temperature with 100 μL/well of Streptavidin POD (Cat. No. 1089153, Roche Applied Science, Indianapolis, Ind.) diluted 1:4000 in the assay buffer. Plates were further washed and then incubated with 3,3′,5,5′-tetramentylbenzidine (TMB, Cat. No. 34028, Pierce Biotechnology) for 30 minutes. Substrate development was stopped by addition of 100 μL/well TMB Stop Solution (Cat. No. 50-85-05, KPL, Gaithersburg, Md.) and the absorbance was measured at 450 nm via an automated plate spectrophotometer.

Binder | binding result
B1 | binds
B2 | binds
B3 | binds
B4 | binds
B5 | binds
B6 | binds
B7 | binds
B8 | binds
B9 | binds
B10 | binds
B11 | binds
B12 | binds
B13 | binds
B14 | binds
B15 | binds
B16 | binds
B17 | binds
B18 | binds
B19 | binds
B20 | binds
B21 | binds
B22 | binds
B23 | binds
B24 | binds
B25 | binds
B26 | binds
B27 | binds
B28 | binds
B29 | binds
